This passage reports Km, Vmax and Vmax/Km results from publication PMC4893494, “Identification and Characterization of Five BAHD Acyltransferases Involved in Hydroxycinnamoyl Ester Metabolism in Chicory” (Frontiers in Plant Science, 2016).

For the series, the system named is O=C(O)C1=C[C@@H](O)[C@@H](O)[C@H](O)C1. The series is described as follows: HPLC-UV of product, Michaelis-Menten. The class given is biochemical, Cichorium intybus. To be noted: acyl acceptor varied, saturating p-coumaroyl-CoA (800 μM), 50 mM phosphate pH 7.1, room temperature. From the text: HPLC-UV of product, Michaelis-Menten on HCT2 (CiHCT2)

The Km is the substrate concentration at which the rate is half of its maximum. The term Vmax denotes the top rate of the reaction or transport when substrate is in excess.

Turning to HCT2 (CiHCT2) (Cichorium intybus), the Km came to 802 ± 63 µM, the Vmax came out at 18.2 µmol/min/mg and the Vmax/Km turned out to be 22800 µL/min/mg.
